Molecular target: Glypican-3 (GPC3) (UniProt P51654)
Experiment: filter
Conditions: n = BzdU (benzyl-modified dU); unit not given; Bmax 0.79; SB18T0.05, 37 C; 32P-labelled aptamer, protein titrated from 100 nM

Glypican-3 (GPC3), sequence (P51654 25-554): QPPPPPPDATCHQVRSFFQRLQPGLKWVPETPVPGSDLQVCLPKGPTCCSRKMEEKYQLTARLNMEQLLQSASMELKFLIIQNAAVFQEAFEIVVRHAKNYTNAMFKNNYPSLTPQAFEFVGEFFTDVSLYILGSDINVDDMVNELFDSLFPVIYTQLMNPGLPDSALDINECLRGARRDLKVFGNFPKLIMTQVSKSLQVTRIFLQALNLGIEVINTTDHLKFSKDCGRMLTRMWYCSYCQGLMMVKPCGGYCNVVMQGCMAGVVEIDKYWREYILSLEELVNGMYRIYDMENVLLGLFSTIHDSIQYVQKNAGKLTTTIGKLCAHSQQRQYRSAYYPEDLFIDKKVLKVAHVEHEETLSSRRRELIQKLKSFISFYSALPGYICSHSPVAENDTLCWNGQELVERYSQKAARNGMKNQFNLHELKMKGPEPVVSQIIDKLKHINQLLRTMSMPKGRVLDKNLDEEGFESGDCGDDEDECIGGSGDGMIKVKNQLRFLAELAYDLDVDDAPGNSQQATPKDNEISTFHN

Sequence “GGGAAGTGAATGCGTTGAATTATGTCCCTTCAGTCATCAC [2428-12-10 (12-10)]” has a Kd of 1.5.

Reference: patent US20230127087
